Source: publication doi:10.1101/2023.02.24.529952

Biological target: HCoV-OC43 Nucleocapsid (N) protein (2X-StrepTag tagged) (HCoV-OC43) (UniProt P33469)
Assay: BLI

HCoV-OC43 Nucleocapsid (N) protein (2X-StrepTag tagged) (HCoV-OC43), sequence (P33469 whole entry): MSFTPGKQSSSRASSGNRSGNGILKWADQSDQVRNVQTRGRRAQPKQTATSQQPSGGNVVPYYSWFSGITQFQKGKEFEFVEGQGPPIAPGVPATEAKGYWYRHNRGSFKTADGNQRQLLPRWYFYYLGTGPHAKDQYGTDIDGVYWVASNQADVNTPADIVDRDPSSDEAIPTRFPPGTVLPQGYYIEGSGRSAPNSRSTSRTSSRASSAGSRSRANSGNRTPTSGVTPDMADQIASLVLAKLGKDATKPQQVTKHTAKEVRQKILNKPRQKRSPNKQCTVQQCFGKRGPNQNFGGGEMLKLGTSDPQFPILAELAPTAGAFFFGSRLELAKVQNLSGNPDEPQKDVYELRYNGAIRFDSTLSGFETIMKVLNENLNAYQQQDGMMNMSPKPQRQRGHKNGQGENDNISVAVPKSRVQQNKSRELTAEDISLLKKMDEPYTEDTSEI

Q: CXCL4 (ligand) was tested. Which Kd did it give?
A: 0.17 µM

Q: And the koff?
A: 0.00088 s⁻¹

Q: And the kon?
A: 5300 M⁻¹ s⁻¹
